Reference: the RNAGym collection of RNA variant scans (doi:10.1073/pnas.2313332121)
This sample holds only a part of the variants without activity.

B1: TPR 5TU (parent)
chain: GGAUCUUCUCGAUCUAACAAAAAAGACAAAUCUGCCACAAAGCUUGAGAGCAUCUUCGGAUGCAGAGGCGGCAGCCUUCGGUGGCGCGAUAGCGCCAACGUUCUCAACUAUGACACGCAAAACGCGUGCUCCGUUGAAUGGAGUUUAUCAUG

Variants of: B1
Assay: polymerase ribozyme fitness, log enrichment relative to wild type (log ratio); higher = more active; in vitro selection for triplet polymerase activity
Summary of the method: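 Fitness is a logarithmic measure of how a genotype enriched relative to the wild type, with replicate averages weighted by inverse variance. The logarithm uses base 2, and enrichment came from Illumina sequencing of input and output libraries. Those libraries were PCR-built, transcribed mutants of each subunit of a heterodimeric triplet polymerase ribozyme, passed through one triplicate in vitro selection round that included frozen incubation at −7 °C, gel excision of extended constructs and streptavidin-bead capture. Genotypes were kept only if they had ≥10 input reads and ≥1 read per output.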

Variant | polymerase ribozyme fitness (log ratio)
G48A A52U C75U A91G | ≤ -4.2
G48C A115G G133A | -3.85
G48C A98G U101C U144A A147U | -0.0628
G48A C108U | ≤ -4.2
A47U U55A A89G A120U U144G | -0.697
A47U G141A | -1.46
A47U G80A A91C | ≤ -4.2
G48C C63U A142G | -1.03
G48A C57A U144G | 0.472
G48A A60G G84U | -1.73
A47U U55A G141U | -1.14
A47U G68U | ≤ -4.2
A47U G84C C93U | ≤ -4.2
A47U C85A U139G | -1.24
G48C A73U U135G | ≤ -4.2
A47U G86U U134A | -3.84
A47U G62C G84U | -3.86
A47U G94A U134G | -1.69
G48A G83U U134C | -1.42
G48C A49C C63U G86A C149A | ≤ -4.2
G48C C51U C69A C116G | ≤ -4.2
G48A C51U C54A U82G A120U | -3.66
G48C U53C C87U U145C | -2.69
G48A U55A C57G A66U G83C U90A C108U G124U | ≤ -4.2

Variant | polymerase ribozyme fitness (log ratio)
G48C A110C G141U U148G | ≤ -4.2
G48C G126U | -0.372
G48C G58C C63A G74C G81A A89U A137C | ≤ -4.2
G48C C99U | -1.72
G48A A107G | -4.08
G48A G88A C105G A115U | -3.86
G48A C57A G92A | -3.32
G48C G70A C75G C87G C93G G140A G152A | -4.11
A47U U53A | -1.33
G48A G50A U56G U148C | ≤ -4.2
G48A G133U | -3.81
G48C U55A A107U U111G | ≤ -4.2
G48C C125G | -0.571
A47U G48U G80C C93U | ≤ -4.2
A47U G126C | -0.0812
G48A A52U G86U | ≤ -4.2
A47U G50C | -3.22
G48C C63U C69U G74A C93A U102G A107G | ≤ -4.2
A47U U101G C116G | -2.38
G48C G143U | -2.25
G48A C76A G94C A106G U127A G141C | ≤ -4.2
G48A G50A C54A C93G U104A | ≤ -4.2
G48C G94U C96U C118G A122U | -3.42
G48A C57A U127A A142G G143A | ≤ -4.2

Variant | polymerase ribozyme fitness (log ratio)
G48C G59C A73G C76U C96U U101C | -3.78
G48A G50C | -3.83
G48A G59U G94A C114A C125A | ≤ -4.2
G48A G80C G94A C96U C99G | -3.97
G48A C57A C125U | -1.74
G48C C85A A142U | ≤ -4.2
A47U U56A C95U A119U U135A | -2.15
G48C C54A C108G C114U C125U U134A C149G | ≤ -4.2
G48C G50A U55A | -3.03
G48C A49C A122U | -3.93
G48C G94U C103U G140A | ≤ -4.2
G48A G86A A89C G94A U151G | ≤ -4.2
G48A C54A U55G G58U A97G | -3.22
G48A C72G | ≤ -4.2
G48C C87G G88C A91G A119U U134G | ≤ -4.2
G48A G62A C96A C132G U134G A147C | ≤ -4.2
G48C U53A G74C C85U C99U A119G A120G | ≤ -4.2
G48A C87U | -0.447
G48A G86U C95U C123A | -2.89
G48A A49U G70U C75A G88A | ≤ -4.2
G48C G50U G92C U145G | -4.11
G48C C54A A73U C99A A150C | ≤ -4.2
G48A C54U G94C | -1.21
G48C C69A C149U | -2.77

Variant | polymerase ribozyme fitness (log ratio)
G48C A113C U148C | ≤ -4.2
G48A G92U C123A | -0.538
G48C C96U A110G | ≤ -4.2
G48A G67A U77C A97U U145G A150U | ≤ -4.2
G48C A60G C76G G94C U104C C131U | ≤ -4.2
A47U U56A C87G A115C G141A | -3.84
A47U G86A | -1.08
G48A U135A | -0.864
G48C C85U G94U C96U U144C | -3.25
G48C G141U | -1.8
G48C G141A | -3.64
G48C A91G C105U A147G | ≤ -4.2
G48C G86U C95A C96G G117C G136A | ≤ -4.2
G48A G59A G86A U104G A110U | ≤ -4.2
A47U C85U | -0.698
G48C G94A | -0.224
A47U G92U | -0.338
G48A C85A A89U A98U A113G G117A | ≤ -4.2
G48C C51U C85U C129A U145C | ≤ -4.2
G48C A49G A113G | ≤ -4.2
G48A C96U A98G | -0.496
A47U C69U C93A A107C A115C | ≤ -4.2
A47U G124A | 0.304
G48A G88A U134C U144G | ≤ -4.2

Variant | polymerase ribozyme fitness (log ratio)
A47U U77C C85A C93G A107U | ≤ -4.2
G48A G59C C63U G86C | -3.98
G48A C85G A98U C99U | -3.36
G48A | -0.217
G48C | 0.0216
G48A G136U | -2.5
G48A G59A A60G A97G | -3.58
A47U U55G | -1.03
A47U U55A | -0.542
G48A U61A A91C C131A U139C | ≤ -4.2
G48C G50U G59U U82A G92C | -3.41
A47U G48C | -1.39
G48C C76U | -3.15
A47U G48A U146G | -2.73
G48A A52U U56A U78A A98U U139C | ≤ -4.2
G48A G59U C87U A97U G136A | -1.99
G48A U61A C105G | ≤ -4.2
G48A C57U G83C U101C | -2.63
G48C G58A A91G | -3.21
G48A A49G C54U U90G G92U C99U A121C U151A | ≤ -4.2
A47U G50C A121U | -3.92
A47U C75U | -1.41
G48A G59A G88C A106G U148C | ≤ -4.2
A47U U56A G94A C118U A121U | -0.95

Variant | polymerase ribozyme fitness (log ratio)
G48A G84A A107C C118G | ≤ -4.2
G48A C87U A91U C93U | ≤ -4.2
A47U C76U | -0.942
G48C C93G | -3.04
G48A G59C | -0.874
G48A G59A | -0.452
A47U G50C C93A C96G | ≤ -4.2
A47U C96A A97G A122C | -1.28
G48C G84A A121G U134A G143A | -3.91
G48C U55A | -0.498
G48A C51U | -1.05
G48A A52G G83U U101A C131A U148A | ≤ -4.2
G48C C85A A120G | -2.75
G48A C76G C87A U90A U146A | ≤ -4.2
G48A C85A C123U U134C | -1.46
G48C C57A C75G G83U A106G A107G A113U | ≤ -4.2
G48A U101G | -2.26
G48C C54U G58C C87U C123U | -1.05
G48C G84C C85A A110U C125A | ≤ -4.2
G48C G70A G88U C96G | ≤ -4.2
G48A U61A G71A C85G A107U G124U G141U | ≤ -4.2
A47U U61A C75A C76U G88U | ≤ -4.2
G48A G83C | -1.78
G48A U55G A142C | -2.84

Variant | polymerase ribozyme fitness (log ratio)
G48A A113G A147G G152C | ≤ -4.2
G48A G83U A98G G140C | ≤ -4.2
G48A A52C C85U | -2.93
G48A C99U U111A A137G A147C | ≤ -4.2
G48A A49C U53A G100A | ≤ -4.2
G48C A49G U55G A66U C85U A97C G126C | ≤ -4.2
G48A C149U | -1.46
G48C G92U | -1.69
G48C C76A U90G U130G | ≤ -4.2
G48C A49C A60G U61A A66G C87A | ≤ -4.2
G48A C85U A97U U130C A150U | ≤ -4.2
A47U G48C G71C G94A C108G G124C G141A | ≤ -4.2
A47U G50A G84U A98U | -3.28
G48C U53G | -3.59
G48C C96A U111A A138C | ≤ -4.2
A47U C57A | 0.807
A47U C96G C116U | -0.28
G48C C57G G67U C85A C93A C96U G140C | ≤ -4.2
G48A C75U C87A C93G | ≤ -4.2
G48A A106G | -1.77
A47U U56A C99G A121C | -2.02
G48C U55A A122U | 0.121
G48A C57G A60G C63A C99G | ≤ -4.2
